Drawing on patent publication US11021533, this text covers FRNT50 (focus reduction neutralization test on Vero cells) for two molecules.

Assay [1] deals with ZIKV strain H/PF/2013 (French Polynesia, 2013) virus (Zika virus, strain H/PF/2013). The assay can be described thus: cell-based or functional assay.
The target of assay [2] is all ZIKV strains tested (MR 766, Dakar 41519, Malaysia P6740, H/PF/2013, Brazil Paraiba 2015). Put plainly: cell-based or functional assay.

B1: ZIKV-88 (antibody, V domains shown)
VH: QVQLLESGGGVVQPGRSLRLSCVASGLTFSTSAMHWVRQAPGKGLEWVAVISYDGSYKFYADSVRDQFTISRDNSKTTLYLQMDGLTPEDTAVYYCARGYNDDSSGSYWYFDLWGRGTLVTVSS
VL: QSVLTQPPSVSAAPGQKVTMSCSGSSSNIGSNFVSWYQQLPGTAPKVLIFDNNQRPSGIPDRFSGSKSGTSATLAITGLQPGDEAVYHCGTWDSSLTFAVFGGGTKLTVL
As to B1, in assay [1], the FRNT50 (focus reduction neutralization test on Vero cells) amounted to 420 ng/mL.

B2: ZIKV-117 (antibody, V domains shown)
VH: QVQLVESGGGVVRPGGSLRLSCAASGFTFKNYGIHWVRQAPGKGPEWVAFVRYDGNNKYYADSVKGRFTISRDNAKNTLSLQMNSLRVEDTAVYFCARDPETFGGFDYWGQGTLVTVSS
VL: ETVMTQSPATLSVSPGERGTLSCRASESVSSNLAWYQQKPGKAPRLLIYGASTRATGIPDRFSGSGSGTEFTLTISSLQSEDFAVYYCQQYYYSPRTFGQGTKVEVK
In assay [2], B2 came in with an FRNT50 (focus reduction neutralization test on Vero cells) of 5 to 25 ng/mL.
